{"source": "paper PMC12153317", "target": "specific HAs not engaged in ELISA (soluble HA ectodomains) (influenza virus)", "test": "ELISA"}
{"substance": "CR8071", "values": [{"measurement": "Kd", "value": 0.35, "unit": "nM"}]}
